Data taken from US7585967 (VASGENE THERAPEUTICS, dated 2009).

How the values were obtained:
[1] = target: T1, B4ECv3 protein (soluble extracellular domain of human EphB4 with V5 epitope tag and 6xHis tag on its … (human, UniProt P54760 16-537)); assay: B4ECv3 on Ni-NTA-agarose, B2-AP at 50 nM, PNPP colour
T1 construct: also called EphB4ECv3; hB4ECv3
T1 sequence: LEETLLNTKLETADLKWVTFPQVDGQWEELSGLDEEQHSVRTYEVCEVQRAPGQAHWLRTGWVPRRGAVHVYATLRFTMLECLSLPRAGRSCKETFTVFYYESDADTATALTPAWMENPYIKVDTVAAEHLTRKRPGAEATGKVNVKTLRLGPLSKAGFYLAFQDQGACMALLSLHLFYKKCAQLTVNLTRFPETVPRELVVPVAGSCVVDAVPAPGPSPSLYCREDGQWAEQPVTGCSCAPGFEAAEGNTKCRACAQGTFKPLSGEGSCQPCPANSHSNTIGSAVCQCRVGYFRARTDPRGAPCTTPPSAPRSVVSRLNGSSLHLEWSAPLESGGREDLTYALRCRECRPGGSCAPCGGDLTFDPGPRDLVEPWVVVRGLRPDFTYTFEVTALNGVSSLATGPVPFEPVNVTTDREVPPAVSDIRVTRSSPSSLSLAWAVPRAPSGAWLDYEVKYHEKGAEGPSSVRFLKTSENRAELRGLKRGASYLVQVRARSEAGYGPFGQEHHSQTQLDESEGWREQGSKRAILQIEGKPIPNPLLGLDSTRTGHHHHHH
Protocol: 10 µl of Ni-NTA-Agarose were incubated in microcentrifuge tubes with 50 µl of indicated amount of B4ECv3 diluted in binding buffer BB (20 mM Tris-HCl, 0.15 M NaCl, 0.1% bovine serum albumin pH 8) After incubation for 30 min on shaking platform, Ni-NTA beads were washed twice with 1.4 ml of BB, followed by application of 50 µl of B2-AP in the final concentration of 50 nM. Binding was performed for 30 min on shaking platform, and then tubes were centrifuged and washed one time with 1.4 ml of BB. Amount of precipitated AP was measured […] after application of PNPP.

[2] = target: T2, B4-GCF1 protein (globular, Cys-rich and first FNIII domain of human EphB4, C-terminally 6xHis tagged) (human, UniProt P54760 16-427); assay: Ephrin B2-AP on B4 proteins immobilized on Ni2+-resin or on nitrocellulose membrane
T2 construct: Range is numbered on mature EphB4
T2 sequence: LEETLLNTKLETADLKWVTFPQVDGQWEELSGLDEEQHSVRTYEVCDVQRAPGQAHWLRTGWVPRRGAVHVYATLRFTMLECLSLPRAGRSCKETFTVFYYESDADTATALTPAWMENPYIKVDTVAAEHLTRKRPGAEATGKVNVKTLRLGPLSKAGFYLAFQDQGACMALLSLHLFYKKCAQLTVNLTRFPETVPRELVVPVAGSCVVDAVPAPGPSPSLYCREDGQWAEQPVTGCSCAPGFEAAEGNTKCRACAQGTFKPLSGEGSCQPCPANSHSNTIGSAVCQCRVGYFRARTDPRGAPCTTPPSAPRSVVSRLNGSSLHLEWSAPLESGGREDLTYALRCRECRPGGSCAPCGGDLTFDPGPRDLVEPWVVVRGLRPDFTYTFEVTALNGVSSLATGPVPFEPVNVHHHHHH
Protocol: (§1) To confirm ability of the purified recombinant proteins to bind Ephrin B2, they were tested in an in vitro binding assay. As expected, GC, GCF1 and GCF2, but not CF2 are binding the cognate ligand Ephrin B2 as confirmed by interaction between Ephrin B2-alkaline phosphatase (Ephrin B2-AP) fusion protein with the B4 proteins immobilized on Ni^2+-resin or on nitrocellulose membrane (FIG. 17).
(§2) To test ligand binding properties of the proteins, 10 µl of Ni-NTA-Agarose (Qiagen) were incubated in microcentrifuge tubes with 10-500 ng sample of a B4-ECD protein diluted in 0.5 ml of binding buffer BB (20 mM Tris-HCl, 0.15 M NaCl, 0.1% bovine serum albumin, pH 8). After incubation for 30 min on shaking platform, Ni-NTA beads were washed twice with 1.4 ml of BB, followed by addition of B2-AP fusion protein at concentration of 50 nM. Binding was performed for 30 min on a shaking platform. Tubes were centrifuged and washed once with 1.4 ml of BB. Amount of precipitated AP was measured colorimetrically at 420 nm after application of p-nitrophenyl phosphate (PNPP) and incubation for 5-30 min.

[3] = target: T3, B4-GC protein (globular domain and Cys-rich domain of human EphB4, C-terminally 6xHis tagged) (human, UniProt P54760 16-327); assay: as above
T3 construct: Range is numbered on mature EphB4
T3 sequence: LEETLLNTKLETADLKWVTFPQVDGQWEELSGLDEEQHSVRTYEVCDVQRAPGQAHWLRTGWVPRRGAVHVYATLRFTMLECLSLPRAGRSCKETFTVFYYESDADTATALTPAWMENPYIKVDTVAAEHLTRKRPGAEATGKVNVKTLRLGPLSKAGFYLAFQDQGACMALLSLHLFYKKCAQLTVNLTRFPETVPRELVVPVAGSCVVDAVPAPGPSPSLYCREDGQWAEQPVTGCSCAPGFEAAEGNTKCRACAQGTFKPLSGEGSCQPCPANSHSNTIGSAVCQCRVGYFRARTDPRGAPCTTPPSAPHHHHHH
Protocol: as §1, §2

[4] = target: T4, B4-GCF2 protein (complete extracellular part of human EphB4, C-terminally 6xHis tagged) (human, UniProt P54760 16-537); assay: as above
T4 construct: Range 1-522 is numbered on mature EphB4 (after leader removal)
T4 sequence: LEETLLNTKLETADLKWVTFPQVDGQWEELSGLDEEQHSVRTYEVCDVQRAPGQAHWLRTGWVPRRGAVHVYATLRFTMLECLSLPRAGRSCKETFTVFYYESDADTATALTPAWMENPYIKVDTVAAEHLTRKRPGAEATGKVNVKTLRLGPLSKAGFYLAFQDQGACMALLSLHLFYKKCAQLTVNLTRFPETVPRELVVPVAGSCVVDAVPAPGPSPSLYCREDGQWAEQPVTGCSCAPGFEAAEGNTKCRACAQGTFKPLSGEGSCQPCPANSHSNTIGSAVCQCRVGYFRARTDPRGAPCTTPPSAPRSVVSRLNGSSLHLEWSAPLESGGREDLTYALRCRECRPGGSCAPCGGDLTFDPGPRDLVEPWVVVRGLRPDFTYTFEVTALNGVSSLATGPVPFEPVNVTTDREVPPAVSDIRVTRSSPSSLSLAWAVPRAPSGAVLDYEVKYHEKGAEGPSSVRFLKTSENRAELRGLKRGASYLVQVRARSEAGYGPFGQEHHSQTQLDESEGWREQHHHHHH
Protocol: as §1, §2

[5] = target: T5, B4ECv3NT protein (soluble extracellular domain of human EphB4 without epitope or purification tags) (human, UniProt P54760 16-537); assay: biochemical assays with B2EC-AP reagent
T5 construct: also called EphB4ECnt; B4EC-NT
T5 sequence: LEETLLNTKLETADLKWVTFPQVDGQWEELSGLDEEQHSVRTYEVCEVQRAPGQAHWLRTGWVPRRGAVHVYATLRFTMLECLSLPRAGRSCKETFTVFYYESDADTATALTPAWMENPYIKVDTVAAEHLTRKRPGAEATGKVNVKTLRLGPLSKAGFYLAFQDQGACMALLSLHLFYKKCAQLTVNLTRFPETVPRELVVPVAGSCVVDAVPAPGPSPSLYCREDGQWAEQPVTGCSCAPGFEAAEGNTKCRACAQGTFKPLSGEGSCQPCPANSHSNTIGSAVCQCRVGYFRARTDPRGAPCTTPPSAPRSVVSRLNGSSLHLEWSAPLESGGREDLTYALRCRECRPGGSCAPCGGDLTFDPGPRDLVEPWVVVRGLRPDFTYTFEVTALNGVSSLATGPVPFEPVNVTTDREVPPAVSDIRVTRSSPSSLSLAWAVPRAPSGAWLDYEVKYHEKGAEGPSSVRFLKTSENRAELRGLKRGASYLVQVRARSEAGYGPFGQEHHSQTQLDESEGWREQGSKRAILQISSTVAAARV

[6] = target: T6, Mouse EphB4/Fc (R & D Systems) (mouse, UniProt P54761 16-539); assay: immunofluorescence on frozen KS sections, FITC-labeled anti-human Fc antibody
T6 construct: Bought; also called EphB4/Fc fusion protein; not shown: Fc; detected with anti-human Fc / anti-human IgG-FITC
T6 sequence (looked up): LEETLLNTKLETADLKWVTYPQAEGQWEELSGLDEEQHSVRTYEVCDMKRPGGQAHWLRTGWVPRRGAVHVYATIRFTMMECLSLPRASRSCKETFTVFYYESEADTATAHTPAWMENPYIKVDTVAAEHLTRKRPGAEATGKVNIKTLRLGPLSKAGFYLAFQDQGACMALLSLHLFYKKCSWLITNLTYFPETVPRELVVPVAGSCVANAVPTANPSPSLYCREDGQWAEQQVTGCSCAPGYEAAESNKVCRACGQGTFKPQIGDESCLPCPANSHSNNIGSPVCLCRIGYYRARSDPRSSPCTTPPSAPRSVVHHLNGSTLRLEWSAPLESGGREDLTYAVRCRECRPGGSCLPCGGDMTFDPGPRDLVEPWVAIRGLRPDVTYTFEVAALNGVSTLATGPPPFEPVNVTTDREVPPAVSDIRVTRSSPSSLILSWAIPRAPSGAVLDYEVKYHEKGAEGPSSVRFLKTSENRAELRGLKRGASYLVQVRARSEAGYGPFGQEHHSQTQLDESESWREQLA
Text: (A) In situ hybridization with antisense probes for ephrin B2 and EphB4 with corresponding H&E stained section to show tumor architecture. Dark blue color in the ISH indicates positive reaction for ephrin B2. No signal for EphB4 was detected in the Kaposi's sarcoma biopsy. For contrast, ISH signal for EphB4 is strong in squamous cell carcinoma tumor cells. Ephrin B2 was also detected in KS using EphB4-AP fusion protein (bottom left). (B) Detection of ephrin B2 with EphB4/Fc fusion protein. Adjacent sections were stained with H&E (left) to show tumor architecture, black rectangle indicates the area shown in the EphB4/Fc treated section (middle) detected with FITC-labeled anti-human Fc antibody as described in the methods section. As a control an adjacent section was treated with human Fc fragment (right). Specific signal arising from EphB4/Fc binding to the section is seen only in areas of tumor cells. (C) Co-expression of ephrin B2 and the HHV8 latency protein LANA1. […] Coexpression is seen as yellow color.
Immunofluorescence detection of EphrinB2 with EPHB4-Fc was done as follows. Frozen sections fixed in 4% paraformaldehyde and blocked with 20% FBS were incubated with 5 μg/ml EphB4/Fc (R&D Systems) for 1 h at RT. Sections were then incubated with 10 μg/ml rabbit anti-human IgG-FITC in PBS (Jackson ImmunoResearch Laboratories West Grove, Pa.) at RT for 1 hour. […]

Measured: binding result

B1: Ephrin B2-alkaline phosphatase (Ephrin B2-AP) fusion protein (protein fusion of Ephrin B2 ectodomain with placental alkaline phosphatase) (ligand)
chain: IVLEPIYWNSSNSKFLPGQGLVLYPQIGDKLDIICPKVDSKTVGQYEYYKVYMVDKDQADRCTIKKENTPLLNCAKPDQDIKFTIKFQEFSPNLWGLEFQKNKDYYIISTSNGSLEGLDNQEGGVCQTRAMKILMKVGQDASSAGSTRNKDPTRRPELEAGTNGRSSTTSPFVKPNPGSSTDGNSAGHSGNNILGSEVALFA
notes: also called B2EC-AP; B2ECAP; not shown: placental alkaline phosphatase from the pAPTag2 vector (GenHunter)
binds: [1] | [2] | [3] | [4] | [5]

B2: ephrin B2 on tumor cells of human Kaposi's sarcoma biopsy sections (ligand)
chain: IVLEPIYWNSSNSKFLPGQGLVLYPQIGDKLDIICPKVDSKTVGQYEYYKVYMVDKDQADRCTIKKENTPLLNCAKPDQDIKFTIKFQEFSPNLWGLEFQKNKDYYIISTSNGSLEGLDNQEGGVCQTRAMKILMKVGQDASSAGSTRNKDPTRRPELEAGTNGRSSTTSPFVKPNPGSSTDGNSAGHSGNNILGSEVALFAGIASGCIIFIVIIITLVVLLLKYRRRHRKHSPQHTTTLSLSTLATPKRSGNNNGSEPSDIIIPLRTADSVFCPHYEKVSGDYGHPVYIVQEMPPQSPANIYYKV
binds: [6]
